System: MS2 coat protein
Assay: apparent KD of MS2 coat protein; designed switch direction (-1 OFF switch, 1 ON switch): -1; higher = weaker reporter binding
In short: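 Stalled E. coli RNA polymerase transcribed designed RNA switches on Illumina chips, which were then titrated with SNAP-549-labelled MS2 coat protein, doubling from 0.7 or 1.5 nM to 3 µM. Steps lasted from 0.8–1.5 h at the lowest concentration to 10–20 min at the highest. The apparent KD is each design's median over clusters of curve-fitted normalised fluorescence.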

[1] = input ligand: microRNA oligo, concentration not stated
[2] = Eterna round: R95, input ligand: FMN 200 uM
[3] = Eterna round: R95, input ligand: microRNA oligo, concentration not stated
[4] = Eterna round: R95, input ligand: none

Sequence | apparent KD of MS2 coat protein (input ligand: FMN 200 uM) [nM] | apparent KD of MS2 coat protein [1] [nM] | apparent KD of MS2 coat protein (input ligand: none) [nM] | apparent KD of MS2 coat protein [2] [nM] | apparent KD of MS2 coat protein [3] [nM] | apparent KD of MS2 coat protein [4] [nM]
CGGCUACGAUGAGGAUAUACGCACAUGAGGAUCACCCAUGUAAAUCACGGGUAAAGAUCUUCAUCGUAGAAGGCAUAAGGGCCC [Edarbelabe] (Eterna round: R96, puzzle: Exclusion NG 2) | 31.8 | 20.9 | 31.4 |  |  | 
CGGGUCGGAGGAUAUACAGAAGCAUCUGUGUCGGGAAUAUGACAUGAGGAUCACCCAUGUAGAAGGCCGAUCAC [Eternabot (L2) Solution 98] (Eterna round: R97, puzzle: Exclusion 2) | 485 |  | 80 |  |  | 
CGGGUGAAUAGAGGAUAUAGUACAUGAGGAUCACCCAUGUAAUAAAUGAGAAUUUCGAAUGUAAUCUAGAAGGCUAGAAAACCC [Ostracism 99 - Jieux - Exclusion NG 2] (Eterna round: R96, puzzle: Exclusion NG 2) | 367 | 150 | 274 |  |  | 
CGGGUUCGUGUUAGGAUAUGCACGCACCCGUAGCGGCAGAAGGAACAUGAGGAUCACCCAUGUGAAUAAGAAAA [BmEX4 A.3] (Eterna round: R97, puzzle: Brourd's mod of Exclusion 4) | 18.3 |  | 15.5 |  |  | 
CGGGUUCGUGUUAGGAUAUGCACGCACCCGUUGCGGCAGAAGGAACAUGAGGAUCACCCAUGUGAAUAAGAAAG [BmEX4 A.21] (Eterna round: R97, puzzle: Brourd's mod of Exclusion 4) | 17.1 |  | 15.5 |  |  | 
CGGUACUGAGGAUAUACAUGAGGAUCACCCAUGUGUACCAGCUAGCGUACUGGCAUUAGUAGAAGGCGGUGCUG [JL-ex3-3.19 Brourd mod] (puzzle: Exclusion 3) |  |  |  | 15.7 | 14.3 | 13.7
CGGUACUGAGGAUAUACAUGAGGAUCACCCAUGUGUUCUAGCUAGCGUACUGGCUAUUGUAGAAGGCGGUGCUG [JL-ex3-3.24 Brourd mod] (puzzle: Exclusion 3) |  |  |  |  | 17.5 | 
CGGUAGUAUGUAGGAUAUCGGUCAGUUUCUGAUCGAGAAGGACAUGAGGAUCACCCAUGUAAAACGACCGGUUUCUGGUUGCCG [JL ENG1 3.55] (Eterna round: R96, puzzle: Exclusion NG 1) | 15.4 | 12 | 15.6 |  |  | 
CGGUCGUCGUGAGGAUAUACAUGAGGAUCACCCAUGUUUCUCGGGUCGGUCGUCCGGUCGGUGGUGUAGAAGGCGCGGUGGCUG [random 3, A 14%] (Eterna round: R96, puzzle: Exclusion NG 2) | 125 | 95.6 | 100 |  |  | 
CGGUGCUGAGGAUAUACAUGAGGAUCACCCAUGUGUUCCAGCUAGCGUACUGGCAGGUGUAGAAGGCGGUACUG [JL-ex3-3.41 Brourd mod] (puzzle: Exclusion 3) |  |  |  | 68.7 | 18.7 | 20.1
CGGUGCUGAGGAUAUACAUGAGGAUCACCCAUGUGUUCCUGCUAGCGUACUGGCAGAUGUAGAAGGCGGUACUG [JL-ex3-3.44 Brourd mod] (puzzle: Exclusion 3) |  |  |  | 84 | 20.8 | 26.7
CGGUGCUGAGGAUAUACAUGAGGAUCACCCAUGUGUUCCUGCUAGGUGACUGGCAAAUGUAGAAGGCGGUACUG [JL-ex3-3.37 Brourd mod] (puzzle: Exclusion 3) |  |  |  | 34.8 | 120 | 131

Reference: the supplement of paper PMC9170038
